Assay results from US9969998B2, “Compositions of adenosine deaminase-2 (ADA2), variants thereof and methods of using same” (Halozyme, Inc., priority 2014, dated 2018).
Numbering of substitutions follows the chain as printed. Names and notes keep the numbering of the source.

B1: R23E: ADA2 variant SEQ ID NO:30 (protein)
chain: IDETRAHLLLKEKMMRLGGELVLNTKEELANERLMTLKIAEMKEAMRTLIFPPSMHFFQAKHLIERSQVFNILRMMPKGAALHLHDIGIVTMDWLVRNVTYRPHCHICFTPRGIMQFRFAHPTPRPSEKCSKWILLEDYRKRVQNVTEFDDSLLRNFTLVTQHPEVIYTNQNVVWSKFETIFFTISGLIHYAPVFRDYVFRSMQEFYEDNVLYMEIRARLLPVYELSGEHHDEEWSVKTYQEVAQKFVETHPEFIGIKIIYSDHRSKDVAVIAESIRMAMGLRIKFPTVVAGFDLVGHEDTGHSLHDYKEALMIPAKDGVKLPYFFHAGETDWQGTSIDRNILDALMLNTTRIGHGFALSKHPAVRTYSWKKDIPIEVCPISNQVLKLVSDLRNHPVATLMATGHPMVISSDDPAMFGAKGLSYDFYEVFMGIGGMKADLRTLKQLAMNSIKYSTLLESEKNTFMEIWKKRWDKFIADVATK
modifications: human ADA2 R20E, mature numbering
B2: S265N: ADA2 variant SEQ ID NO:54 (protein)
chain: B1 chain with E20R, S262N
modifications: human ADA2 S262N, mature numbering
B3: K374E: ADA2 variant SEQ ID NO:21 (protein)
chain: B1 chain with E20R, K371E
modifications: human ADA2 K371E, mature numbering
B4: K374D: ADA2 variant SEQ ID NO:20 (protein)
chain: B1 chain with E20R, K371D
modifications: human ADA2 K371D, mature numbering
B5: WT ADA2: wild type recombinant human adenosine deaminase 2 with FLAG tag, mature ADA2 SEQ ID NO:5 (protein, listed as Homo sapiens)
chain: B1 chain with E20R
modifications: FLAG tag; ADA2 mature protein
B6: PEG-K374D: rHuADA2-K374D (SEQ ID NO:20) PEGylated on surface exposed lysines with linear PEG-20K (conjugate)
chain: B1 chain with E20R, K371D
modifications: linear PEG-20K on surface lysines; human ADA2 K371D, mature numbering

Test: Spectrophotometric adenosine deaminase assay at varying pH (pH optimum)
Assay type: biochemical
Details: pH 5.5
Method: Adenosine deaminase activity of rHuADA2 and variants at varying pH were assessed to determine the pH optimum of each. The adenosine deaminase activity was determined spectrophotometrically by direct measurement of changes in adenosine absorbance. […] During the deamination reaction, the absorbance of ADO decreases while that of INO increases with time. Since the dynamic changes in absorbance make it difficult to monitor activity at a single wavelength, the relative ADO activity was determined as a ratio of the ADO peak to isobestic point (i.e. the wavelength where ADO and INO have the same extinction coefficient). The isobestic point, which is 253 nm, remains unchanged and is concentration independent, so that it is the reference point to correct for volume or intensity discrepancies.
To construct the standard curve for ADO and INO, a series of solution mixtures in 0.001% Tween-20 containing different concentrations of ADO and INO were prepared. The total concentration of ADO and INO mix was 50 μM, in 1×PBS (10 mM phosphate, 137 mM NaCl, 2.7 mM KCl), pH 7.4. The samples were scanned with the wavelengths between 220 nm and 300 nm to determine the isosbestic point, where all spectra cross.
For performing the spectrophotometric adenosine deaminase assay of ADA2 and variants, a 2× solution containing 10 mM ADO in 100 mM potassium phosphate buffer (KPB), 0.1% Tween-20 at different pHs (i.e. 5.5, 6, 6.5, 6.75, 7, 7.25, 7.4, 7.75 and 8) were prepared. A separate 2× solution containing 2 μg/mL WT rHuADA2 or variants were prepared in the same 100 mM potassium phosphate buffer (KPB), 0.1% Tween-20 at the respective pH (i.e. 5.5, 6, 6.5, 6.75, 7, 7.25, 7.4, 7.75 and 8). An equal volume of the ADO solution and the ADA2 solution (wildtype or variants) were mixed to initiate reaction. At each time point (i.e. 1, 3, 5, 7, 9, 11, 13 and 15 min), a small aliquot (4 μl) was removed and diluted 50 times by adding to 196 μl 1×PBS, pH 7.4. The diluted samples were further diluted 2 fold (in duplicates) by adding 85 μl samples to 85 μl 1×PBS in a UV-transparent half area plate. The absorbance at 253 nm and 261 nm were measured of each diluted sample.
Adenosine concentration was determined using the A261/A253 ratio and the standard curve. Adenosine deaminase activity was measured by negative change in ADO concentration per min×100.

Row | Molecule | Adenosine deaminase activity Δ [ADO]/min × (−100)
1 | B1 | 22.84
2 | B2 | 24.61
3 | B3 | 15.76
4 | B4 | 12.19
5 | B5 | 21.11

Same assay, conditions: pH 5.5 to 8, 5 mM ADO

Row | Molecule | pH optimum (highest deaminase activity)
6 | B2 | 7.25
7 | B5 | approximately 6.5

Same assay, conditions: pH 6

Row | Molecule | Adenosine deaminase activity Δ [ADO]/min × (−100)
8 | B1 | 25.64
9 | B2 | 31.59
10 | B3 | 19.15
11 | B4 | 10.68
12 | B5 | 22.06

Same assay, conditions: pH 6.5

Row | Molecule | Adenosine deaminase activity Δ [ADO]/min × (−100)
13 | B1 | 29.18
14 | B2 | 41.30
15 | B3 | 27.09
16 | B4 | 14.22
17 | B5 | 33.77

Same assay, conditions: pH 6.75

Row | Molecule | Adenosine deaminase activity Δ [ADO]/min × (−100)
18 | B1 | 29.47
19 | B2 | 44.46
20 | B3 | 25.72
21 | B4 | 12.90
22 | B5 | 29.76

Same assay, conditions: pH 7

Row | Molecule | Adenosine deaminase activity Δ [ADO]/min × (−100)
23 | B1 | 28.53
24 | B2 | 45.16
25 | B3 | 24.63
26 | B4 | 13.22
27 | B5 | 28.70

Same assay, conditions: pH 7.25

Row | Molecule | Adenosine deaminase activity Δ [ADO]/min × (−100)
28 | B1 | 21.71
29 | B2 | 50.99
30 | B3 | 21.88
31 | B4 | 12.86
32 | B5 | 24.47

Same assay, conditions: pH 7.4

Row | Molecule | Adenosine deaminase activity Δ [ADO]/min × (−100)
33 | B1 | 19.37
34 | B2 | 45.81
35 | B3 | 18.32
36 | B4 | 10.55
37 | B5 | 21.77

Same assay, conditions: pH 7.75

Row | Molecule | Adenosine deaminase activity Δ [ADO]/min × (−100)
38 | B1 | 7.41
39 | B2 | 25.16
40 | B3 | 5.98
41 | B4 | 1.55
42 | B5 | 6.65

Same assay, conditions: pH 8

Row | Molecule | Adenosine deaminase activity Δ [ADO]/min × (−100)
43 | B1 | 5.33
44 | B2 | 3.70
45 | B3 | 4.25
46 | B4 | 3.46
47 | B5 | 3.58

Test: Adenosine deaminase (ADA) enzymatic activity assay kit
Assay type: biochemical
Details: not given

Row | Molecule | enzymatic activity relative to WT rHuADA2
48 | B1 | improved enzymatic activity
49 | B3 | improved enzymatic activity
50 | B4 | improved enzymatic activity

Same assay, conditions: PEGylated and non-PEGylated forms (Table 23)

Row | Molecule | adenosine deaminase activity mU/mL [mU/mL]
51 | B1 | 129.9
52 | B6 | 142
53 | B4 | 162.9
54 | B5 | 121.6

Same assay, conditions: Table 23

Row | Molecule | % of WT adenosine deaminase activity [%]
55 | B1 | 106.8
56 | B6 | 116.8
57 | B4 | 134
58 | B5 | 100

Same assay, conditions: protein diluted to 5 μg/mL, serially diluted 2 fold (Table 21)

Row | Molecule | adenosine deaminase activity mU/mL [mU/mL] | ΔA/min, adenosine deaminase activity
59 | B1 | 161.6 | 70.2
60 | B3 | 313.8 | 136.5
61 | B4 | 269.8 | 117.3
62 | B5 | 78 | 33.9

Same assay, conditions: purified protein at 5 μg/mL

Row | Molecule | Adenosine deaminase activity mU/ml [mU/ml] | Adenosine deaminase activity ΔA/min
63 | B2 | 164.8 | 71.7 ΔA/min
64 | B5 | 78 | 33.9 ΔA/min

Same assay, conditions: purified protein at 5 μg/mL; compared to WT-ADA2

Row | Molecule | % of WT activity [%]
65 | B2 | 211
66 | B5 | 100

Same assay, conditions: relative to rHuADA2 WT (Table 21)

Row | Molecule | % activity vs. WT [%]
67 | B1 | 207.1
68 | B3 | 402.3
69 | B4 | 345.9
70 | B5 | 100

Test: Thermal stability by differential scanning fluorimetry (DSF)
Assay type: physicochemical
Details: not given
Method in brief: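 Tm was taken as the midpoint of the unfolding transition. WT and variant rHuADA2, PEGylated or not, at 0.1-1 mg/mL were run in triplicate with ROX thermal shift dye, ramped 25 to 99° C at 0.05° C/s. Fluorescence read at 580 nm excitation and 623 nm emission.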

Row | Molecule | Tm higher than WT ADA2 [°C]
71 | B3 | 1.4

Same assay, conditions: 0.1-1 mg/mL protein

Row | Molecule | Tm, melting temperature by DSF [°C]
72 | B1 | 65.2
73 | B2 | 60.8
74 | B6 | 67.81
75 | B3 | 69.7
76 | B4 | 66.8
77 | B5 | 67.1
